Results as given in US9850520B2, “Electrochemical detection of proteases using AC voltammetry on nanoelectrode arrays” (Kansas State University Research Foundation, priority 2013, dated 2017).

Target: T1, H2N—(CH2)4—CO-(SEQ ID NO:1)-NH—CH2-Fc (Homo sapiens, UniProt Q99538)
T1 construct: purchased R&D Systems Inc. (Minneapolis, Minn.)
T1 sequence (Q99538 18-323 limits assumed): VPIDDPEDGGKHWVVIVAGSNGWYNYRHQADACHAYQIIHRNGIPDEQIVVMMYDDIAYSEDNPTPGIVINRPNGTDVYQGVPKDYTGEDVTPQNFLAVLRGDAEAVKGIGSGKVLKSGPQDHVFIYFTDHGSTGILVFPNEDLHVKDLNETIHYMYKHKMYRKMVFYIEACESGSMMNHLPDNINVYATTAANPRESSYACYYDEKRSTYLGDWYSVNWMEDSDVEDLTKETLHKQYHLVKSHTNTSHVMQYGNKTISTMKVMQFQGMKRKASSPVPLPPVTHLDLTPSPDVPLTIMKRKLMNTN
Test: ACV proteolysis kinetics of legumain on Fc-tetrapeptide immobilized on VACNF NEA
Format: biochemical
Description: In the protease study, a tetrapeptide H2N—(CH2)4—CO-(SEQ ID NO:1)-NH—CH2-Fc is covalently attached to the exposed tip of a VACNF NEA as shown in FIG. 2. Fc provides reliable redox signals at 0.25 V vs. Ag/AgCl (3M KCl) in ACV measurements. As shown in later sections, the unique structure of VACNF NEA enables the enhanced ACV signal at over 1750 Hz AC frequency. Upon being supplied with legumain (a cancer related protease), the peptide is cleaved at the site between Asn and Leu. As a result, the Fc moiety is released from the electrode surface into bulk solution, causing the redox signal to decrease. The kinetic of the enzymatic reaction at the electrode surface can be monitored by continuously repeated ACV measurements. The advantage of this method is that the Fc label provides a characteristic redox signal which can be easily separated from the nonFaradaic background and other redox signals. However, the mechanism becomes complicated for enzymes requiring much longer peptide sequences for specific recognition. The Fc signal involves electron transfer between Fc molecule and the electrode surface, which is highly sensitive to the Fc surface distance. This may vary in a large range depending on the molecular packing of the long peptides on the electrode surface.
For protease analysis, the tetrapeptide H2N—(CH2)4—CO-(SEQ ID NO:1)-NHCH2-Fc was covalently linked to the VACNF NEA by forming amide bond facilitated by EDC and sulfo-NHS. In order to stabilize the electronic signal, the electrode surface was reacted with 6-amino-1-hexanol to fill the remaining —COOH sites. […]
The electrochemical measurements were performed in a TEFLON cell with a total volume of 250 μL for legumain experiments and 120 μL for kinase/phosphatase experiments. […] The average AC current was measured as the potential was swept from −0.05 to +0.65 V at 10 mV/s scan rate using a staircase waveform. […]
The change in peak current (ip,acv) during continuously repeated ACV measurements with Fc-linked tetrapeptide immobilized on a VACNF NEA was measured. […]

[1] = Example 4, [E0]=80.1 nM legumain

B1: legumain: Recombinant human legumain/asparaginyl endopeptidase (molecular weight 49 kDa) from R&D Systems (protein, UniProt Q99538 18-323, looked up)
Legumain: T1 sequence (Q99538 18-323 limits assumed)
Example 1, [E0]=773 nM legumain, f 1750 Hz, V0 150 mV
  time constant of exponential decay: 1076 s
[1]
  slope of reaction rate vi vs Γsurf: 0.00063 s⁻¹
  time constant of exponential decay: 1101 s
